Laboratory results reported in patent US20230084102A1 (HUMABS BIOMED, published 2023).
Residue numbers refer to the chain shown, from its start. Like-named read-outs stand apart in the source and are kept apart here. Where no end group is shown, it is not given here. The star is where a group is joined. Biotin = O=C1N[C@H]2[C@H](CS[C@H]2CCCCC(=O)*)N1

T1: biotinylated NANP-peptide (Plasmodium falciparum)
T1 construct: also called NANP-repeat region of CSP
T1 peptide: Biotin-NANPNANPNANPNANPNA

T2: biotinylated NPDP-peptide (Plasmodium falciparum, also: biotinylated)
T2 peptide: KQPADGNPDPNANPN

T3: biotinylated NPDP19-peptide (Plasmodium falciparum)
T3 peptide: Biotin-KQPADGNPDPNANPNVDPN

B1: MGH2 (antibody, V domains shown)
VH: QVQLVESGGGVVQPGGSLRLSCTASGFSFSSYAMHWVRQAPGKGLEWVAYTRYDGSNKFYLDSVQGRFTISRDNSKNTLYLEMDSLRLEDTAVYFCAKVGDGTVAGTIDYWGQGTLVTVSS
VL: YIVMTQSPLSLPVTLGQPASISCRSSQSLVYSDGNTYLNWYQQRPGQSPRRLIYKVSNRDSGVPDRFSGSGSGTDFTLKISRVEAEDVGVYYCMQGTHWWTFGQGTKVEIK
notes: also called parental antibody MGH2
B2: MGH2variant1 (antibody, V domains shown)
VH: B1 VH
VL: B1 VL with W99F
notes: Expressed as IgG1; also called MGH2v1
B3: MGU10 (antibody, V domains shown)
VH: QVQLVESGGGVVQPGRSLRLSCAASGFAFSNYGMNWVRQAPGKGLEWVAVIWHDGSLKYYTQSVKGRFTISRDNAKNTLFLQMDSLSADDTAMYYCTVWYLETPDDGFDIWGRGTMVTVSS
VL: QLVLTQPPSASASLGVSVTLTCTLSHGHTSKAIAWHQQQPGKGPRYLMKVNSDGSHTKGAAVPDRFSGSTSGAERHFTISNLQSDDEADYYCQAWDSGIWVFGGGTKLTVL
notes: also called parental antibody MGU10
B4: MGU10variant2 (antibody, V domains shown)
VH: B3 VH with D106E
VL: B3 VL
notes: Expressed as IgG1; also called MGU10v2
B5: MGU10variant3 (antibody, V domains shown)
VH: B3 VH
VL: B3 VL with D96E
notes: Expressed as IgG1; also called MGU10v3
B6: MGU10variant8 (antibody, V domains shown)
VH: B3 VH with D89E, D106E
VL: B3 VL
notes: also called MGU10v8
B7: MGU10variant1 (antibody, V domains shown)
VH: B3 VH with N35H, R113Q
VL: B3 VL
notes: Expressed as IgG1 in Expi293F cells and tested as quantified culture supernatant; also called MGU10v1

How the values were obtained:
[1] = biological target: T1, biotinylated NANP-peptide; experiment: ELISA, biotinylated peptide on avidin-coated plates, titrated IgG
Description: (§1) To test specific antibody binding to (i) the NANP-repeat region of CSP and (ii) the N-terminal region of CSP covering the junction between the N-terminal domain and the NANP-repeats, ELISA plates were coated with 10 μg/ml of avidin (Sigma). […] The plates were washed and incubated with titrated monoclonal antibodies, followed by 1/500 AP-conjugated goat anti-human IgG (Southern Biotech) and pNPP substrate. EC50 (ng/ml) values were calculated for every sample tested by nonlinear regression analysis using the Graph Pad Prism 7 software.

[2] = biological target: T2, biotinylated NPDP-peptide; experiment: as above
Description: as §1

[3] = biological target: T1, biotinylated NANP-peptide; experiment: as above
Description: as §1

[4] = biological target: T2, biotinylated NPDP-peptide; experiment: as above
Description: as §1

[5] = biological target: T3, biotinylated NPDP19-peptide; experiment: ELISA, biotinylated peptide on streptavidin-coated plates
[6] = biological target: T1, biotinylated NANP-peptide; experiment: as above

Row | Binder | EC50 [1] [µg/mL] | EC50 [2] [µg/mL] | EC50 [3] [µg/mL] | EC50 [4] [µg/mL] | binding result [5] | binding result [6]
1 | B1 | 0.0279 | 0.0488 |  |  |  | 
2 | B2 | 0.0223 | 0.0658 |  |  |  | 
3 | B3 |  |  | 0.0343 | 0.0261 |  | 
4 | B4 |  |  | 0.0268 | 0.0204 | binds | 
5 | B5 |  |  | 0.0263 | 0.0251 |  | 
6 | B6 |  |  |  |  | binds | binds
7 | B7 |  |  | 0.0285 | 0.0225 |  | 
